The supplement of paper PMC10567573

B1: ANKRD9 (parent)
chain: LLEDMRASEAFHWDERGRAAAYSP

Variants of: B1
Test: protein stability index of a GFP-peptide fusion (GPS, HEK-293T) (PSI 1-6); higher = more stable
Conditions: c terminus: a fixed tail appended
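Further: lentivirally expressed fusions sorted by FACS into six bins by GFP to DsRed ratio, PSI derived from sequencing read proportions per bin multiplied by bin number.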

| Variant | protein stability index |
| --- | --- |
| LLEDMRASEAEHWDERGRAAAYSP [F11E] | 1.74 |
| LLEDMRASEARHWDERGRAAAYSP [F11R] | 2.87 |
| LLEDMRASEAGHWDERGRAAAYSP [F11G] | 3.23 |
| LLEDMRASEAPHWDERGRAAAYSP [F11P] | 2.5 |
| LLEDMRASEATHWDERGRAAAYSP [F11T] | 2.5 |
| LLEDMRASEAKHWDERGRAAAYSP [F11K] | 3.72 |
| LLEDMRASEAQHWDERGRAAAYSP [F11Q] | 2.32 |
| LLEDMRASEALHWDERGRAAAYSP [F11L] | 1.98 |
| LLEDMRASEAMHWDERGRAAAYSP [F11M] | 2.28 |
| LLEDMRISEAFHWDERGRAAAYSP [A7I] | 1.96 |
| LLEDMRDSEAFHWDERGRAAAYSP [A7D] | 2.51 |
| LLEDMRKSEAFHWDERGRAAAYSP [A7K] | 1.52 |
| LLEDMRCSEAFHWDERGRAAAYSP [A7C] | 1.8 |
| LLEDMRQSEAFHWDERGRAAAYSP [A7Q] | 1.8 |
| LLEDMRYSEAFHWDERGRAAAYSP [A7Y] | 1.8 |
| LLEDMRPSEAFHWDERGRAAAYSP [A7P] | 4.21 |
| LLEDMRWSEAFHWDERGRAAAYSP [A7W] | 2.3 |
| LLEDMRTSEAFHWDERGRAAAYSP [A7T] | 2.15 |
| LLEDMRLSEAFHWDERGRAAAYSP [A7L] | 2.19 |
| LLEDMRVSEAFHWDERGRAAAYSP [A7V] | 2.35 |
| LLEDMRMSEAFHWDERGRAAAYSP [A7M] | 2.34 |
| LLEDMRRSEAFHWDERGRAAAYSP [A7R] | 1.76 |
| LLEDMRESEAFHWDERGRAAAYSP [A7E] | 1.27 |
| LLEDMRHSEAFHWDERGRAAAYSP [A7H] | 3.62 |

| Variant | protein stability index |
| --- | --- |
| LLEDMRGSEAFHWDERGRAAAYSP [A7G] | 3.01 |
| LLEDMRFSEAFHWDERGRAAAYSP [A7F] | 2.64 |
| LLEDMRSSEAFHWDERGRAAAYSP [A7S] | 1.78 |
| LLEDMVASEAFHWDERGRAAAYSP [R6V] | 2.43 |
| LLEDMWASEAFHWDERGRAAAYSP [R6W] | 1.87 |
| LLEDMCASEAFHWDERGRAAAYSP [R6C] | 3.6 |
| LLEDMFASEAFHWDERGRAAAYSP [R6F] | 2.79 |
| LLEDMEASEAFHWDERGRAAAYSP [R6E] | 3.96 |
| LLEDMAASEAFHWDERGRAAAYSP [R6A] | 3.56 |
| LLEDMPASEAFHWDERGRAAAYSP [R6P] | 3.27 |
| LLEDMKASEAFHWDERGRAAAYSP [R6K] | 2.85 |
| LLEDMYASEAFHWDERGRAAAYSP [R6Y] | 2.43 |
| LLEDMSASEAFHWDERGRAAAYSP [R6S] | 2.9 |
| LLEDMMASEAFHWDERGRAAAYSP [R6M] | 2.17 |
| LLEDMLASEAFHWDERGRAAAYSP [R6L] | 1.1 |
| LLEDMDASEAFHWDERGRAAAYSP [R6D] | 4.03 |
| LLEDMIASEAFHWDERGRAAAYSP [R6I] | 2.32 |
| LLEDMNASEAFHWDERGRAAAYSP [R6N] | 2.97 |
| LLEDMTASEAFHWDERGRAAAYSP [R6T] | 2.5 |
| LLEDMHASEAFHWDERGRAAAYSP [R6H] | 2.95 |
| LLEDMRASMAFHWDERGRAAAYSP [E9M] | 2.46 |
| LLEDMRASYAFHWDERGRAAAYSP [E9Y] | 2.48 |
| LLEDMRASQAFHWDERGRAAAYSP [E9Q] | 4.46 |
| LLEDMRASSAFHWDERGRAAAYSP [E9S] | 3 |

| Variant | protein stability index |
| --- | --- |
| LLEDMRASIAFHWDERGRAAAYSP [E9I] | 1.79 |
| LLEDMRASGAFHWDERGRAAAYSP [E9G] | 2.06 |
| LLEDMRASRAFHWDERGRAAAYSP [E9R] | 2.77 |
| LLEDMRASDAFHWDERGRAAAYSP [E9D] | 2.99 |
| LLEDMRASAAFHWDERGRAAAYSP [E9A] | 3.12 |
| LLEDMRASFAFHWDERGRAAAYSP [E9F] | 2.32 |
| LLEDMRASPAFHWDERGRAAAYSP [E9P] | 2.8 |
| LLEDMRASHAFHWDERGRAAAYSP [E9H] | 3.31 |
| LLEDMRASKAFHWDERGRAAAYSP [E9K] | 3.29 |
| LLEDMRASTAFHWDERGRAAAYSP [E9T] | 2.96 |
| LLEDMRASWAFHWDERGRAAAYSP [E9W] | 1.32 |
| LLEDMRASLAFHWDERGRAAAYSP [E9L] | 1.89 |
| LLEDMRASVAFHWDERGRAAAYSP [E9V] | 2.19 |
| LLEDMRASEAFHWDQRGRAAAYSP [E15Q] | 1.94 |
| LLEDMRASEAFHWDTRGRAAAYSP [E15T] | 1.91 |
| LLEDMRASEAFHWDMRGRAAAYSP [E15M] | 1.32 |
| LLEDMRASEAFHWDSRGRAAAYSP [E15S] | 1.64 |
| LLEDMRASEAFHWDHRGRAAAYSP [E15H] | 2.68 |
| LLEDMRASEAFHWDGRGRAAAYSP [E15G] | 1.7 |
| LLEDMRASEAFHWDKRGRAAAYSP [E15K] | 1.8 |
| LLEDMRASEAFHWDFRGRAAAYSP [E15F] | 2.95 |
| LLEDMRASEAFHWDIRGRAAAYSP [E15I] | 2.83 |
| LLEDMRASEAFHWDLRGRAAAYSP [E15L] | 1.5 |
| LLEDMRASEAFHWDYRGRAAAYSP [E15Y] | 1.81 |

| Variant | protein stability index |
| --- | --- |
| LLEDMRASEAFHWDDRGRAAAYSP [E15D] | 1.56 |
| LLEDMRASEAFHWDRRGRAAAYSP [E15R] | 1.58 |
| LLEDMRASEAFHWDPRGRAAAYSP [E15P] | 1.88 |
| LLEDMRASEAFHWDCRGRAAAYSP [E15C] | 2.68 |
| LLEDMRASEAFHWDARGRAAAYSP [E15A] | 1.31 |
| LLEDMRASEAFHWDVRGRAAAYSP [E15V] | 1.52 |
| LLEDIRASEAFHWDERGRAAAYSP [M5I] | 2.89 |
| LLEDLRASEAFHWDERGRAAAYSP [M5L] | 1.6 |
| LLEDWRASEAFHWDERGRAAAYSP [M5W] | 3.64 |
| LLEDKRASEAFHWDERGRAAAYSP [M5K] | 3.97 |
| LLEDHRASEAFHWDERGRAAAYSP [M5H] | 3.39 |
| LLEDYRASEAFHWDERGRAAAYSP [M5Y] | 3.83 |
| LLEDARASEAFHWDERGRAAAYSP [M5A] | 3.92 |
| LLEDNRASEAFHWDERGRAAAYSP [M5N] | 4.1 |
| LLEDSRASEAFHWDERGRAAAYSP [M5S] | 3.3 |
| LLEDPRASEAFHWDERGRAAAYSP [M5P] | 4.09 |
| LLEDGRASEAFHWDERGRAAAYSP [M5G] | 3.94 |
| LLEDERASEAFHWDERGRAAAYSP [M5E] | 4.66 |
| LLEDVRASEAFHWDERGRAAAYSP [M5V] | 3.77 |
| LLEDQRASEAFHWDERGRAAAYSP [M5Q] | 3.91 |
| LLEDFRASEAFHWDERGRAAAYSP [M5F] | 3.94 |
| LLEDTRASEAFHWDERGRAAAYSP [M5T] | 4.12 |
